This is an account of results in the supplement of paper PMC9112550, “Optimization of the antimicrobial peptide Bac7 by deep mutational scanning” (BMC Biology, 2022).

The data set relates to Escherichia coli TOP10. Nature of the data set: shrunken log2 fold change of peptide-encoding DNA abundance (4.5 h post-induction vs induction); higher = less antimicrobial activity (less host growth inhibition). To be noted: time post-induction: 4.5 h; library: site-saturation at positions 5, 18, 19, 20.
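Note: peptides expressed intracellularly from a pBAD plasmid library in pooled LB shake-flask culture, induced with 0.3% L-arabinose, DNA abundance read by NGS, three biological replicates, DESeq2 with apeglm shrinkage.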

For RRIRLRPPRLPRPRPRPHTMPRP, the “shrunken log2 fold change” value was -1.13.
As for RRIRERPPRLPRPRPRPAGWPRP, the figure is 0.555.
To RRIRLRPPRLPRPRPRPAELPRP belongs -0.172; to RRIRVRPPRLPRPRPRPYTQPRP, -0.171.
As for RRIRNRPPRLPRPRPRPRERPRP, the figure is 0.0512; as for RRIRLRPPRLPRPRPRPYICPRP, -0.0262; as for RRIRIRPPRLPRPRPRPERRPRP, 0.264.
As for RRIRPRPPRLPRPRPRPGEVPRP, the “shrunken log2 fold change” value amounted to 0.605.
As for RRIRVRPPRLPRPRPRPNTSPRP, the figure is -0.391.
Turning to RRIRIRPPRLPRPRPRPITYPRP, the “shrunken log2 fold change” value was -0.323.
To RRIRNRPPRLPRPRPRPNIGPRP belongs -0.00968.
As for RRIRWRPPRLPRPRPRPQNKPRP, the figure is -0.536.
As for RRIRHRPPRLPRPRPRPSTNPRP, the figure is -0.275; as for RRIRCRPPRLPRPRPRPQIGPRP, -0.00649; as for RRIRMRPPRLPRPRPRPYGQPRP, 0.0303.
For RRIRPRPPRLPRPRPRPWHIPRP, the “shrunken log2 fold change” value was -0.0921.
As for RRIRARPPRLPRPRPRPEHYPRP, the figure is 0.068; as for RRIRSRPPRLPRPRPRPRMLPRP, -0.214; as for RRIRFRPPRLPRPRPRPTQEPRP, 0.321.
To RRIRVRPPRLPRPRPRPWAPPRP belongs 0.0631; to RRIRRRPPRLPRPRPRPATHPRP, 0.434.
As for RRIRMRPPRLPRPRPRPAWAPRP, the figure is 0.663; as for RRIRRRPPRLPRPRPRPVTPPRP, 0.705.
As to RRIRTRPPRLPRPRPRPCFLPRP, the “shrunken log2 fold change” value is -0.535.
As for RRIRERPPRLPRPRPRPLNYPRP, the “shrunken log2 fold change” value was -0.176.
Turning to RRIRDRPPRLPRPRPRPHLRPRP, the “shrunken log2 fold change” value was -0.00431.
As for RRIRHRPPRLPRPRPRPSGSPRP, the figure is -0.175.
With RRIRQRPPRLPRPRPRPQQYPRP, the “shrunken log2 fold change” value is -0.0402.
For the sequence RRIRERPPRLPRPRPRPKIHPRP, the “shrunken log2 fold change” value was -0.233.
To RRIRCRPPRLPRPRPRPLMQPRP belongs 0.0849.
As for RRIRWRPPRLPRPRPRPRWGPRP, the figure is 0.534; as for RRIRGRPPRLPRPRPRPKQCPRP, 0.103; as for RRIRTRPPRLPRPRPRPKINPRP, -0.325.
As for RRIRARPPRLPRPRPRPSSGPRP, the figure is 0.412; as for RRIRERPPRLPRPRPRPWYFPRP, -0.171; as for RRIRVRPPRLPRPRPRPTDYPRP, -0.479.
Turning to RRIRIRPPRLPRPRPRPLSSPRP, the “shrunken log2 fold change” value is -0.143.
For the sequence RRIRDRPPRLPRPRPRPVFKPRP, the “shrunken log2 fold change” value was -0.0946.
To RRIRCRPPRLPRPRPRPGDNPRP belongs -0.125; to RRIRRRPPRLPRPRPRPTTMPRP, 0.32.
To RRIRYRPPRLPRPRPRPWGTPRP belongs -0.0285; to RRIRERPPRLPRPRPRPIRQPRP, 0.00357; to RRIRWRPPRLPRPRPRPQKFPRP, -0.0956.
For the sequence RRIRDRPPRLPRPRPRPEKHPRP, the “shrunken log2 fold change” value was determined as 0.377.
As for RRIRTRPPRLPRPRPRPCFTPRP, the figure is -0.358.
As for RRIRDRPPRLPRPRPRPQGSPRP, the figure is -0.0152; as for RRIRFRPPRLPRPRPRPTPQPRP, 0.366; as for RRIRSRPPRLPRPRPRPDQHPRP, -0.0484.
As for RRIRPRPPRLPRPRPRPWAAPRP, the figure is 0.126; as for RRIRIRPPRLPRPRPRPLKTPRP, 0.0161.
On to RRIRGRPPRLPRPRPRPMWPPRP, for which the “shrunken log2 fold change” value turned out to be 1.07.
RRIRIRPPRLPRPRPRPSDVPRP: the “shrunken log2 fold change” value is -0.838.
Regarding RRIRWRPPRLPRPRPRPYMFPRP, the “shrunken log2 fold change” value is -0.194.
To RRIRHRPPRLPRPRPRPIVMPRP belongs -0.012; to RRIRDRPPRLPRPRPRPNGKPRP, -0.181.
To RRIRVRPPRLPRPRPRPVIFPRP belongs -0.0885; to RRIRFRPPRLPRPRPRPMWCPRP, 0.0155; to RRIRHRPPRLPRPRPRPEHGPRP, -0.00141.
Consider RRIRNRPPRLPRPRPRPPHLPRP, for which the “shrunken log2 fold change” value amounted to 0.155.
To RRIRIRPPRLPRPRPRPMSNPRP belongs 0.115; to RRIRCRPPRLPRPRPRPQGDPRP, 0.0138.
As for RRIRHRPPRLPRPRPRPGLSPRP, the figure is -0.0763; as for RRIRFRPPRLPRPRPRPYDKPRP, -0.374; as for RRIRMRPPRLPRPRPRPPRLPRP, 1.06.
To RRIRARPPRLPRPRPRPYCVPRP belongs 0.118.
With RRIRMRPPRLPRPRPRPYGCPRP, the “shrunken log2 fold change” value is -0.341.
As for RRIRERPPRLPRPRPRPFERPRP, the figure is 0.00782; as for RRIRMRPPRLPRPRPRPWQPPRP, -0.0454; as for RRIRVRPPRLPRPRPRPNTCPRP, -0.101.
Regarding RRIRRRPPRLPRPRPRPIGPPRP, the “shrunken log2 fold change” value was found to be 0.147.
Regarding RRIRDRPPRLPRPRPRPHQYPRP, the “shrunken log2 fold change” value came out at 0.0144.
To RRIRRRPPRLPRPRPRPKCRPRP belongs 0.453; to RRIRIRPPRLPRPRPRPDLPPRP, -0.334.
As for RRIRPRPPRLPRPRPRPRGPPRP, the figure is 0.545; as for RRIRERPPRLPRPRPRPEAWPRP, 0.0366; as for RRIRMRPPRLPRPRPRPTWRPRP, 0.894.
To RRIRKRPPRLPRPRPRPQVCPRP belongs 0.138; to RRIRCRPPRLPRPRPRPQNLPRP, -0.49; to RRIRSRPPRLPRPRPRPECGPRP, 0.646.
Take RRIRVRPPRLPRPRPRPIKTPRP: the “shrunken log2 fold change” value stood at 0.059.
Turning to RRIRMRPPRLPRPRPRPTMDPRP, the “shrunken log2 fold change” value was 0.306.
As for RRIRMRPPRLPRPRPRPWSWPRP, the figure is -0.00716; as for RRIRERPPRLPRPRPRPTPMPRP, 0.0913; as for RRIRQRPPRLPRPRPRPWMTPRP, -0.00186.
To RRIRLRPPRLPRPRPRPWIFPRP belongs -0.0453.
As for RRIRERPPRLPRPRPRPRRWPRP, the figure is 0.267; as for RRIRARPPRLPRPRPRPMMKPRP, -0.146; as for RRIRTRPPRLPRPRPRPGRCPRP, 0.178.
On to RRIRHRPPRLPRPRPRPEISPRP, for which the “shrunken log2 fold change” value came to 0.0458.
As for RRIRCRPPRLPRPRPRPAMNPRP, the figure is -0.0385; as for RRIRYRPPRLPRPRPRPTRPPRP, 0.472.
As for RRIRERPPRLPRPRPRPEIYPRP, the figure is 0.0872; as for RRIRYRPPRLPRPRPRPFTKPRP, -0.184; as for RRIRGRPPRLPRPRPRPHKDPRP, 0.11.
To RRIRGRPPRLPRPRPRPWSMPRP belongs 0.0583.
RRIRFRPPRLPRPRPRPQTKPRP: the “shrunken log2 fold change” value is -0.142.
As for RRIRIRPPRLPRPRPRPHEIPRP, the figure is -0.256.
To RRIRVRPPRLPRPRPRPKYVPRP belongs -0.163.
Take RRIRVRPPRLPRPRPRPRPWPRP: the “shrunken log2 fold change” value is 0.178.
To RRIRPRPPRLPRPRPRPLFFPRP belongs 0.0106; to RRIRCRPPRLPRPRPRPYLTPRP, -0.459; to RRIRGRPPRLPRPRPRPFTMPRP, -0.278.
As for RRIRRRPPRLPRPRPRPEASPRP, the figure is 0.75; as for RRIRGRPPRLPRPRPRPHPYPRP, 0.0786.
As for RRIRNRPPRLPRPRPRPFPHPRP, the figure is -0.0462; as for RRIRKRPPRLPRPRPRPPLLPRP, 0.524.
With RRIRERPPRLPRPRPRPMRGPRP, the “shrunken log2 fold change” value is 1.19.
To RRIRIRPPRLPRPRPRPVLTPRP belongs -0.0413; to RRIRYRPPRLPRPRPRPRAGPRP, 0.461.
As for RRIRTRPPRLPRPRPRPQQSPRP, the figure is -0.0133; as for RRIRSRPPRLPRPRPRPAYRPRP, -0.154; as for RRIRHRPPRLPRPRPRPTDFPRP, -0.0704.
As for RRIRRRPPRLPRPRPRPTLLPRP, the figure is 0.465; as for RRIRCRPPRLPRPRPRPRIEPRP, -0.205.
Regarding RRIRNRPPRLPRPRPRPKADPRP, the “shrunken log2 fold change” value was -0.0273.
As for RRIRERPPRLPRPRPRPPTAPRP, the figure is 0.0872; as for RRIRIRPPRLPRPRPRPWALPRP, -0.0173.
As for RRIRNRPPRLPRPRPRPQSNPRP, the figure is -0.428.
Take RRIRERPPRLPRPRPRPKCYPRP: the “shrunken log2 fold change” value is -1.04.
As for RRIRIRPPRLPRPRPRPNSDPRP, the figure is -0.267; as for RRIRGRPPRLPRPRPRPAHMPRP, 0.145; as for RRIRSRPPRLPRPRPRPWNVPRP, -0.346.
To RRIRPRPPRLPRPRPRPRCAPRP belongs 1.73; to RRIRVRPPRLPRPRPRPGMTPRP, 0.177; to RRIRTRPPRLPRPRPRPLRAPRP, 1.05.
